Experimental findings from patent US20160145323A1 (INTEGRAL MOLECULAR, published 2016) are described below.

Test [1] concerns the target T1, CHIKV E2/E1 envelope (S27 strain) displayed on particles (intact CHIKV VLPs, retroviral VLPs, pseudo (Chikungunya virus (S27 strain), UniProt P0DOK1 326-748; Q8JUX5 810-1248). The experiment in a line: cell-based or functional assay.
Test [2] concerns the target T1, CHIKV E2/E1 envelope (S27 strain) ….
The target in test [3] is CHIKV envelope mutant E2-D117A expressed on HEK-293T cells (Chikungunya virus (S27 strain), UniProt P0DOK1 326-748; Q8JUX5 810-1248).
Test [4] deals with CHIKV envelope mutant E2-F84A expressed on HEK-293T cells (Chikungunya virus (S27 strain), UniProt P0DOK1 326-748; Q8JUX5 810-1248).
Test [5] has as its target CHIKV envelope mutant E2-V113A expressed on HEK-293T cells (Chikungunya virus (S27 strain), UniProt P0DOK1 326-748; Q8JUX5 810-1248).
Test [6] has as its target CHIKV envelope mutant E2-G114A expressed on HEK-293T cells (Chikungunya virus (S27 strain), UniProt P0DOK1 326-748; Q8JUX5 810-1248).
The target in test [7] is CHIKV envelope mutant E2-Y69A expressed on HEK-293T cells (Chikungunya virus (S27 strain), UniProt P0DOK1 326-748; Q8JUX5 810-1248).
Test [8] deals with CHIKV envelope mutant E2-T116A expressed on HEK-293T cells (Chikungunya virus (S27 strain), UniProt P0DOK1 326-748; Q8JUX5 810-1248).
The target in test [9] is CHIKV E2/E1 envelope (S27 strain) displayed on particles (intact CHIKV VLPs, retroviral VLPs, pseudo (Chikungunya virus (S27 strain)) (UniProt P0DOK1)). Nature of the test: cell-based or functional assay.
Test [10] has the same target.
The target of test [11] is CHIKV envelope mutant E2-G55A expressed on HEK-293T cells (Chikungunya virus (S27 strain)) (UniProt P0DOK1).
Test [12] concerns the target CHIKV envelope mutant E2-R80A expressed on HEK-293T cells (Chikungunya virus (S27 strain)) (UniProt P0DOK1).
The target in test [13] is CHIKV envelope mutant E2-E24A expressed on HEK-293T cells (Chikungunya virus (S27 strain)) (UniProt P0DOK1).
Test [14] has as its target CHIKV envelope mutant E2-I121A expressed on HEK-293T cells (Chikungunya virus (S27 strain)) (UniProt P0DOK1).
Test [15] deals with CHIKV envelope mutant E2-A162S (Chikungunya virus (S27 strain)) (UniProt P0DOK1).
Test [16] concerns the target CHIKV envelope mutant E2-W64A expressed on HEK-293T cells (Chikungunya virus (S27 strain)) (UniProt P0DOK1).
Test [17] deals with CHIKV envelope mutant E2-K66A expressed on HEK-293T cells (Chikungunya virus (S27 strain)) (UniProt P0DOK1).
The target of test [18] is CHIKV envelope mutant E2-G55A expressed on HEK-293T cells (Chikungunya virus (S27 strain)) (UniProt P0DOK1). This is another data set of the same source.
For test [19], the target named is CHIKV envelope mutant E2-R80A expressed on HEK-293T cells (Chikungunya virus (S27 strain)) (UniProt P0DOK1). The source holds these as a separate data set.
Test [20] addresses CHIKV envelope mutant E2-E24A expressed on HEK-293T cells (Chikungunya virus (S27 strain)) (UniProt P0DOK1). This is another data set of the same source.
Test [21] has as its target CHIKV envelope mutant E2-I121A expressed on HEK-293T cells (Chikungunya virus (S27 strain)) (UniProt P0DOK1). This is another data set of the same source.
Test [22] has as its target CHIKV envelope mutant E2-W64A expressed on HEK-293T cells (Chikungunya virus (S27 strain)) (UniProt P0DOK1). The source holds these as a separate data set.

B1: MAb CAP5A-F6 (IM-CKV065), human IgG1 (antibody, V domains shown)
VH: EVQLVQSGPEVKKPGASVKVSCKASGYTFSNYGVSWVRQAPGQGLEWLGWISAYNGNTKYAQKFEGRVTLTTDSLSDTAYMELRSLRSDDTAVYYCVRDDRSGYYYLPFDFWGQGTLVTVSS
VL: DIQLTQSPSFLSASVGDRVTITCRASQGISSYLAWYQQKPGKAPKLLIFAASTLQSGVPSRFSGSGSGTDYTLTISSLQPEDFATYYCQQSYSNPTFGQGTRLEIK
B1: the “IC50, neutralization of reporter viruses pseudotyped with CHIKV S27 E2/E1” value in test [1] was 0.17 µg/mL. Also, in test [2], the equilibrium dissociation constant (Kd) was determined as 9.3 nM, the off-rate (koff) turned out to be 0.0015 s⁻¹ and the on-rate (kon) was 160000 M⁻¹ s⁻¹.

B2: CAP101A-E8 (IM-CKV056), converted to full length human IgG (antibody, V domains shown)
VH: QVQLVQSGGGVVQPGRSLRLSCAASGFTLSTYGLHWVRQAPGKGLEWVAVISYDGTNKYYADSVKGRFTVSWDNSKNTLYLQMNSLRAEDTAVYYCAKDLASSSWSDYYHYGMDVWGQGTMVTVSS
VL: DIQLTQSPSTLSASVGDRITITCRATQSIGSWLAWYQQKPGKAPKLLIYKASSLESGVPSRFSGSGSATEFTLTISGLQPEDFATYYCQQLKSFPLTFGPGTKVDIQ
With B2, the “reactivity relative to WT CHIKV env” value in [3], in test [4], in test [5], in test [6], in test [7] and in [8] was < 20 % of WT throughout.

B3: MAb CAP4A-E7 (IM-CKV063), human IgG1 (antibody, V domains shown)
VH: QVQLVQSGAEVKKPGSAVKVSCKASGGTLRKYAISWLRQAPGQGLEWMGGIIPIFGTANYAQKFQGRVTITADESTTTPYTTTPYTSTAYIELTSLRSEDTAVYYCARDLGPLTGYSYSYFDYWGQGTLVTVSS
VL: EIVMTQSPATLSLSPGERATLSCRASQSVSSYLAWYQQKPGQAPRLLIYDASNRATGIPDRFSGSGSGTDFTLTISRLEPEDFAVYYCQQYANSRRTFGQGTKVEIT
In test [9], B3 displayed an IC50, neutralization of reporter viruses pseudotyped with CHIKV S27 E2/E1 of 0.0074 µg/mL and a PRNT50, live CHIKV S27 on Vero cells of 11 ng/mL. In test [10], this molecule yielded an equilibrium dissociation constant (Kd) of 0.32 nM, a dissociation rate constant (koff) of 9.4e-05 s⁻¹ and a kon of 290000 M⁻¹ s⁻¹.

B4: purified Fab CAP4A-E7 (Fab, V domains shown)
VH: QVQLVQSGAEVKKPGSAVKVSCKASGGTLRKYAISWLRQAPGQGLEWMGGIIPIFGTANYAQKFQGRVTITADESTTTPYTTTPYTSTAYIELTSLRSEDTAVYYCARDLGPLTGYSYSYFDYWGQGTLVTVSS
VL: EIVMTQSPATLSLSPGERATLSCRASQSVSSYLAWYQQKPGQAPRLLIYDASNRATGIPDRFSGSGSGTDFTLTISRLEPEDFAVYYCQQYANSRRTFGQGTKVEIT
In the case of B4, the percent wild-type reactivity (percent wild-type) came to 12 in test [11]; 3 in test [12]; 15 in [13]; 2 in [14]; 37 in test [15]; 1 in test [16]. Moreover, the binding relative to wild-type E2/E1 (% of wild-type) in [17], in [18], in test [19], in [20], in test [21] and in test [22] was less than 20 each time.
